This passage reports Kd results from publication PMC10113246.

What all share (assay): SPR
Parameters in all cases: unit not given here
Common to all, as to details: SPR DBD-TD: 25 mM HEPES pH 7.5, 200 mM NaCl, 0.5 mM TCEP, 0.005% Tween-20, SPR DBD: 10 mM HEPES pH 7.5, 150 mM NaCl, 0.2 mM TCEP

In one data set the target is T1, p63 DBD H208Y H247Y (UniProt Q9H3D4).
T1 sequence: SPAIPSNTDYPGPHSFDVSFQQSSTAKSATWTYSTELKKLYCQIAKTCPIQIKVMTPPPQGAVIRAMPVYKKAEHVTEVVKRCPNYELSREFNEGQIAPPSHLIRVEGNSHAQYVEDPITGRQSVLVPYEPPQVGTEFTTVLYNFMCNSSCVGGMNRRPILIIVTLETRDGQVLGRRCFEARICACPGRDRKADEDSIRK

In the next data set the target is T2, p63 DBD I172A I211A (UniProt Q9H3D4).
T2 sequence: T1 sequence with I50A, Y86H

In the next data set the target is T3, p63 DBD R204W R243W (UniProt Q9H3D4).
T3 sequence: T1 sequence with R82W, Y86H

The target of the next data set is T4, p63 DBD R227Q R266Q (UniProt Q9H3D4).
T4 sequence: T1 sequence with Y86H, R105Q

The target in a further data set is T5, p63 DBD R279H R318H (UniProt Q9H3D4).
T5 sequence: T1 sequence with Y86H, R157H

A further data set concerns the target T6, p63 DBD R280S R319S (UniProt Q9H3D4).
T6 sequence: T1 sequence with Y86H, R158S

For a further data set, the target named is T7, p63 DBD R298Q R337Q (UniProt Q9H3D4).
T7 sequence: T1 sequence with Y86H, R176Q

The target in another data set is T8, p63 DBD R304W R343W (UniProt Q9H3D4).
T8 sequence: T1 sequence with Y86H, R182W

The next data set deals with T9, p63 DBD V202M V241M (UniProt Q9H3D4).
T9 sequence: T1 sequence with V80M, Y86H

A further data set addresses T10, p63 DBD WT (UniProt Q9H3D4).
T10 sequence: T1 sequence with Y86H

In another data set the target is T11, p63 DBD Y192C Y231C (UniProt Q9H3D4).
T11 sequence: T1 sequence with Y70C, Y86H

In the next data set the target is T12, p63 DBD-TD K193E K232E (UniProt Q9H3D4).
T12 sequence: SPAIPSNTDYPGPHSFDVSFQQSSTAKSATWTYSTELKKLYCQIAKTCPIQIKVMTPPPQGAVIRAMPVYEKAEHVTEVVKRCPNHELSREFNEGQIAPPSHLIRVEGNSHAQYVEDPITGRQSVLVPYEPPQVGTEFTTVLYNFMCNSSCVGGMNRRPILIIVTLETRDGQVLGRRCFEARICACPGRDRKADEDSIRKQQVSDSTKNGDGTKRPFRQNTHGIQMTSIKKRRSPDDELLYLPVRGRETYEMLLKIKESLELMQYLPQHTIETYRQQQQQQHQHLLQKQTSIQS

The target of another data set is T13, p63 DBD-TD R227Q R266Q (UniProt Q9H3D4).
T13 sequence: T12 sequence with E71K, R105Q

Another data set deals with T14, p63 DBD-TD R280H R319H (UniProt Q9H3D4).
T14 sequence: T12 sequence with E71K, R158H

The next data set has as its target T15, p63 DBD-TD R280S R319S (UniProt Q9H3D4).
T15 sequence: T12 sequence with E71K, R158S

In a further data set the target is T16, p63 DBD-TD R298Q R337Q (UniProt Q9H3D4).
T16 sequence: T12 sequence with E71K, R176Q

In another data set the target is T17, p63 DBD-TD R304W R343W (UniProt Q9H3D4).
T17 sequence: T12 sequence with E71K, R182W

The next data set deals with T18, p63 DBD-TD WT (UniProt Q9H3D4).
T18 sequence: T12 sequence with E71K

Substitutions are numbered along the chain they refer to.

For “TTTTTTTTTTTAAACATGTTTAAACATGTTT / AAACATGTTTAAACATGTTT [20 bp p63 consensus sequence (SPR)]”, the Kd in the data set with p63 DBD H208Y H247Y amounted to 2060; with p63 DBD I172A I211A, 33.7; in the data set with p63 DBD R204W R243W, 510; with p63 DBD R227Q R266Q, 120; with p63 DBD R279H R318H, 202; with p63 DBD R280S R319S it was 351000. The Kd was determined as 90.8 with p63 DBD R298Q R337Q; 220 in the data set with p63 DBD R304W R343W; 83300 with p63 DBD V202M V241M; 30.4 with p63 DBD WT; 1240 with p63 DBD Y192C Y231C.

“TTTTTTTTTTTGAACATGTCCCAACATGTTG / CAACATGTTGGGACATGTTC [p21 response element (SPR)]”: the Kd came out at 9920 with p63 DBD-TD K193E K232E; 515 with p63 DBD-TD R227Q R266Q; 1120 in the data set with p63 DBD-TD R280H R319H; 11800 with p63 DBD-TD R280S R319S; 435 with p63 DBD-TD R298Q R337Q; 27000 with p63 DBD-TD R304W R343W. Further, in the data set with p63 DBD-TD WT, the Kd came out at 67.9.
